From paper doi:10.1101/2021.08.28.458008v1

Substrate: O=C1O[C@H]([C@@H](O)CO)C(=O)C1=O
Assay: purified protein
Details: 2 mM GSH

Protein	Km (50 mM sodium phosphate pH 7.4) [µM]	kcat (50 mM sodium phosphate pH 7.4) [s⁻¹]	Km (50 mM sodium phosphate pH 7.4, His6-tagged mutant)
EcGrx2 (Escherichia coli K-12) (protein) MKLYIYDHCPYCLKARMIFGLKNIPVELHVLLNDDAETPTRMVGQKQVPILQKDDSRYMPESMDIVHYVDKLDGKPLLTGKRSPAIEEWLRKVNGYANKLLLPRFAKSAFDEFSTPAARKYFVDKKEASAGNFADLLAHSDGLIKNISDDLRALDKLIVKPNAVNGELSEDDIQLFPLLRNLTLVAGINWPSRVADYRDNMAKQTQINLLSSMAI	2879 ± 640.4	3.8245	
EcGrx2 (Escherichia coli K-12; C12S/C9S) (protein) MKLYIYDHSPYSLKARMIFGLKNIPVELHVLLNDDAETPTRMVGQKQVPILQKDDSRYMPESMDIVHYVDKLDGKPLLTGKRSPAIEEWLRKVNGYANKLLLPRFAKSAFDEFSTPAARKYFVDKKEASAGNFADLLAHSDGLIKNISDDLRALDKLIVKPNAVNGELSEDDIQLFPLLRNLTLVAGINWPSRVADYRDNMAKQTQINLLSSMAI			968 (±462.3) µM
